These are literature values, as cited in paper PMC8300624.

One may read the Kd as a measure of binding affinity in units of concentration.

Like-named read-outs stand apart in the source and are kept apart here.

For series [1], the target named is ASK1 TBD (Homo sapiens) (UniProt Q99683).
Series [2] shares this target. The source holds these as a separate data set.

Sequence of Thioredoxin 1 (P10599 2-105): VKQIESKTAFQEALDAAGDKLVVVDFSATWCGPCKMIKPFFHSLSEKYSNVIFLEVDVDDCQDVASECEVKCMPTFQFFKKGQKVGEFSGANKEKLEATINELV
Sequence of ASK1 TBD (Homo sapiens) (Q99683 88-302): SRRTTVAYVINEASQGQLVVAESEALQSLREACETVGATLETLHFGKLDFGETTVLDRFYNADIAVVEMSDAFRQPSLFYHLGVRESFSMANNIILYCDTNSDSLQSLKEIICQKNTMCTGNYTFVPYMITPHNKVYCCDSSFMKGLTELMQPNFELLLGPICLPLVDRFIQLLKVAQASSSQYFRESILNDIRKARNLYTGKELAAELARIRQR

Consider Thioredoxin 1 (from UniProt P10599), for which the dissociation constant (Kd) is 300 nM with ASK1 TBD (Homo sapiens) [1] and 4000 nM with ASK1 TBD (Homo sapiens) [2].
